Where a SMILES comes first, the peptide text is derived from it. [ ]: non-standard residue; d: D form. The star is where a group is joined. X1 = O=C(CCCCCCCn1cnc2c(Br)c(Br)c(Br)c(Br)c21)*
Tests used:
Assay in all cases: Kinase panel residual activity
Assay type in all cases: biochemical
Settings in all cases: compound at 1 micromolar
[1] = biological target: T1, BRSK1 (Homo sapiens, UniProt Q8TDC3)
T1 sequence (Q8TDC3 1-778): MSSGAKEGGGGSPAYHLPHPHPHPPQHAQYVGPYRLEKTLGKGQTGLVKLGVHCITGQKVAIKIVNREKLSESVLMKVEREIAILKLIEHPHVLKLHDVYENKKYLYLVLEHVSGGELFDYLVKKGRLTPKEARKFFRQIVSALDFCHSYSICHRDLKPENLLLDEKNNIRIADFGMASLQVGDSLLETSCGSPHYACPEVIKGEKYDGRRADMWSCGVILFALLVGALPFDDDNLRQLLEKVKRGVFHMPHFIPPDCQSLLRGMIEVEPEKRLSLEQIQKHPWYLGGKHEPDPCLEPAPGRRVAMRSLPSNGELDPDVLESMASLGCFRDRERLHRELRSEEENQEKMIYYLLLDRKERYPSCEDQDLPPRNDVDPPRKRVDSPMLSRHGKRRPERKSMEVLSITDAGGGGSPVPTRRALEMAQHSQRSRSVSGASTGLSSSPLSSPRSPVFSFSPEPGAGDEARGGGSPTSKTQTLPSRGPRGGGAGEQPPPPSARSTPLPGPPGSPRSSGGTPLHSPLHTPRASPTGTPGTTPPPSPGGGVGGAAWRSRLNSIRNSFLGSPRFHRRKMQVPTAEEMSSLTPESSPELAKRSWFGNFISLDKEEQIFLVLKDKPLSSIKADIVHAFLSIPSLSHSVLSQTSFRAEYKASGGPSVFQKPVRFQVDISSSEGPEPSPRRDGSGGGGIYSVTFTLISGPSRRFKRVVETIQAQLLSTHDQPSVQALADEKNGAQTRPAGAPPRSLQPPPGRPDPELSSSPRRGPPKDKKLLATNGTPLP

[2] = biological target: S6K1 (Homo sapiens, UniProt P23443)
S6K1, sequence (P23443 whole entry, species assumed): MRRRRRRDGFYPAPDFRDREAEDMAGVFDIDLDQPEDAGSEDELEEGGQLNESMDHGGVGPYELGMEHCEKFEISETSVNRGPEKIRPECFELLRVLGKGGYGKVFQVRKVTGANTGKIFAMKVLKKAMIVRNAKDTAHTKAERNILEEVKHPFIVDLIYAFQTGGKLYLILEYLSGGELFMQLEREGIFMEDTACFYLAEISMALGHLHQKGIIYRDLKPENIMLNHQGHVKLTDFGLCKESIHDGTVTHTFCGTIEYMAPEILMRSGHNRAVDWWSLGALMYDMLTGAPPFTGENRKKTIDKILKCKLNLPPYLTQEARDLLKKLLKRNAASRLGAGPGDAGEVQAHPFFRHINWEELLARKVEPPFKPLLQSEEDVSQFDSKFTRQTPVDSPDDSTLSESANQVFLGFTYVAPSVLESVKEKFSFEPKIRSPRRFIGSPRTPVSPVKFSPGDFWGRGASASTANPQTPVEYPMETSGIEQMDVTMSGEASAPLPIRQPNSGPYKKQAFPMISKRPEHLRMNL

[3] = biological target: RSK1 (Homo sapiens, UniProt Q15418)
RSK1, sequence (Q15418 whole entry, species assumed): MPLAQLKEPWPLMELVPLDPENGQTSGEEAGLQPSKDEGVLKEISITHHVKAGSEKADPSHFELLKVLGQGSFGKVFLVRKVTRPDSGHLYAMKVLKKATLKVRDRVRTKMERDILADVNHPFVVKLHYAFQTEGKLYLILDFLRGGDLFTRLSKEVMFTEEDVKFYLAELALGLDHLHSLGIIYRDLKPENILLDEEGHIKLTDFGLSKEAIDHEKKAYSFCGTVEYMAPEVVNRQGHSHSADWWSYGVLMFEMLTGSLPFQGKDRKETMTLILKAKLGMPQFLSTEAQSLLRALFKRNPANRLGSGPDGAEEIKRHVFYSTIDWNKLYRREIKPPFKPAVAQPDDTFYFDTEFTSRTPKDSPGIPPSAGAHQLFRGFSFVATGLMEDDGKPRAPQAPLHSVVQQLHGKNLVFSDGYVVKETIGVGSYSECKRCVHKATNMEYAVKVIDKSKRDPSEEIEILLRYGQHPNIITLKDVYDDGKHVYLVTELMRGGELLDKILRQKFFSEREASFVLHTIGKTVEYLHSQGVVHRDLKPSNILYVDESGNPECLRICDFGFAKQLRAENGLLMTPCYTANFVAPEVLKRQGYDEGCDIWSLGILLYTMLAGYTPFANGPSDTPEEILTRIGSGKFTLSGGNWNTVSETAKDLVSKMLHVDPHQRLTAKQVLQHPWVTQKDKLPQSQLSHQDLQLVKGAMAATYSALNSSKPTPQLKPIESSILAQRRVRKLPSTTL

[4] = biological target: T2, GCK (Homo sapiens, UniProt Q12851)
T2 sequence (Q12851 1-820): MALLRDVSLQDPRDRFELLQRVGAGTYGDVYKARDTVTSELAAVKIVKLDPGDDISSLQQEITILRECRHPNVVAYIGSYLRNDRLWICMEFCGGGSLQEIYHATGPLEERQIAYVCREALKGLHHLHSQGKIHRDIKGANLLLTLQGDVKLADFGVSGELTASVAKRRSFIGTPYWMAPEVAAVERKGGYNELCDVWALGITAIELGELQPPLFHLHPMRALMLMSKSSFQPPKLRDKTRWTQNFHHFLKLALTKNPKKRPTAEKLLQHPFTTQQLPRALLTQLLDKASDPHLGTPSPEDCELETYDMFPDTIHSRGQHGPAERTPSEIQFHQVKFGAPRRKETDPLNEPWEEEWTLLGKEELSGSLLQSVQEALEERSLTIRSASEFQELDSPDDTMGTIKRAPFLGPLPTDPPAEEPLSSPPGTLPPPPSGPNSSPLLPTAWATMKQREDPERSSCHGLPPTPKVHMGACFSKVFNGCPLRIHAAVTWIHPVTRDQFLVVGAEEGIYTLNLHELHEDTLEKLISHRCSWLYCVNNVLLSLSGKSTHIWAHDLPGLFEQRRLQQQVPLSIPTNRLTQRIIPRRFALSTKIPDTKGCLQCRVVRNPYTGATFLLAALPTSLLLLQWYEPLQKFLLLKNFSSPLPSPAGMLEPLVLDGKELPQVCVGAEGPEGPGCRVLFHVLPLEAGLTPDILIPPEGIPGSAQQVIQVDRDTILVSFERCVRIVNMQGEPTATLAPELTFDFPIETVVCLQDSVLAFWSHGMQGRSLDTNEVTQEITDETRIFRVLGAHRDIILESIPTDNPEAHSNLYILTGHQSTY

[5] = biological target: MAPKAP-K2 (Homo sapiens, UniProt P49137)
MAPKAP-K2, sequence (P49137 whole entry, species assumed): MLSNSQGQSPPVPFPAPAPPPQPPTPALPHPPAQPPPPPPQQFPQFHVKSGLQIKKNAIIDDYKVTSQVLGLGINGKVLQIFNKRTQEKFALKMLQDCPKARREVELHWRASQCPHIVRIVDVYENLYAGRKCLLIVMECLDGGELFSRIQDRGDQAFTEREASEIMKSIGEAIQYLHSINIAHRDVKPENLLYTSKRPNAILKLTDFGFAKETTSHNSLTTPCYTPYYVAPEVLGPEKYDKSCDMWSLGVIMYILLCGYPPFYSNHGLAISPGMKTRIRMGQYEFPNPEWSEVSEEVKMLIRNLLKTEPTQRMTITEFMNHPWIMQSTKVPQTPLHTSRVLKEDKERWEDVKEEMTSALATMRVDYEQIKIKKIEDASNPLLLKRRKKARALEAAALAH

[6] = biological target: MAP4K5 (Homo sapiens, UniProt Q9Y4K4)
MAP4K5, sequence (Q9Y4K4 whole entry, species assumed): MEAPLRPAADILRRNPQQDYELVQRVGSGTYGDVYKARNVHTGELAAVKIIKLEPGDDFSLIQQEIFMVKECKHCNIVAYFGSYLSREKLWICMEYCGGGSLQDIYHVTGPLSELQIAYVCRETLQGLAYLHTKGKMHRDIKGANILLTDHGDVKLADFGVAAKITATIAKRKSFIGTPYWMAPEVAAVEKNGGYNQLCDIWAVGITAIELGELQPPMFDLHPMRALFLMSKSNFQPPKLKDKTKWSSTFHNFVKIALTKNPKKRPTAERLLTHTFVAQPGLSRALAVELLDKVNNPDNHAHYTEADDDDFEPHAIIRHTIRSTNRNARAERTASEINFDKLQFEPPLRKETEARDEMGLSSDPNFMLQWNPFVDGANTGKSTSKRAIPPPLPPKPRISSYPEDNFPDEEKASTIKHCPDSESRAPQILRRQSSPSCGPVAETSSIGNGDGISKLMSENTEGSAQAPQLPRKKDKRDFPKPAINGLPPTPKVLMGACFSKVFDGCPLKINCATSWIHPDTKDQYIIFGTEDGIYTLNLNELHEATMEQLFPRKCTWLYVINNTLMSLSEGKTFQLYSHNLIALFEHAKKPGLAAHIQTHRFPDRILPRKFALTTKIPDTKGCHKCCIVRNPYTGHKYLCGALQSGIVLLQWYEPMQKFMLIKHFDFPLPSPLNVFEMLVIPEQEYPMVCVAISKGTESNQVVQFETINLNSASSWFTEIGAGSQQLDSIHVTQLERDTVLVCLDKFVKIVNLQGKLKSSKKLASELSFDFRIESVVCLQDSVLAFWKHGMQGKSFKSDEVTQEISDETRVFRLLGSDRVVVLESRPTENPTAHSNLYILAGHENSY

[7] = biological target: T3, MARK4 (Homo sapiens, UniProt Q96L34)
T3 sequence (Q96L34 1-752): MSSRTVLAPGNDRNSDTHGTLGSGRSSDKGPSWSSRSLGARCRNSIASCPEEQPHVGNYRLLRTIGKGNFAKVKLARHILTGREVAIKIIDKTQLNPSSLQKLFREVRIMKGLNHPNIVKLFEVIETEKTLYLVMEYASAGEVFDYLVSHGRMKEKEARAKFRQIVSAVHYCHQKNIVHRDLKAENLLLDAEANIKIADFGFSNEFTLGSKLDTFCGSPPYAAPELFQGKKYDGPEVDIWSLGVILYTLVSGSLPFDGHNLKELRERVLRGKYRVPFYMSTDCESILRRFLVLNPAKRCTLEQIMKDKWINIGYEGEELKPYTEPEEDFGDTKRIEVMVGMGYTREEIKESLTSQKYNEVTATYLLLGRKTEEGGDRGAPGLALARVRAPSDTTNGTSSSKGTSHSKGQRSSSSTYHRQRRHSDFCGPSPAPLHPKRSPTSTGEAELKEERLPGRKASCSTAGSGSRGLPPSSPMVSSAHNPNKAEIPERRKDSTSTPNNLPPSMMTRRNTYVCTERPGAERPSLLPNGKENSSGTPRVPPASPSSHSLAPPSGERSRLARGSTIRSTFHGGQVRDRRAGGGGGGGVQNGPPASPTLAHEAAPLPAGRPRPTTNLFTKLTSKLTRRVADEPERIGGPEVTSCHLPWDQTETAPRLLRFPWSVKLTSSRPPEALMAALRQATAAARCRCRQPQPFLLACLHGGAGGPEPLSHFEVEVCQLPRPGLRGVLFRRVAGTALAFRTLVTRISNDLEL

NCCCC[C@H](NC(=O)[C@H](CC(=O)O)NC(=O)[C@H](CC(=O)O)NC(=O)[C@H](CC(=O)O)NC(=O)[C@H](CC(=O)O)NC(=O)[C@H](CC(=O)O)NC(=O)[C@@H](CC(=O)O)NC(=O)CCCCCCCn1cnc2c(Br)c(Br)c(Br)c(Br)c21)C(=O)O [TBBI-OcA-(D-Asp)-(L-Asp)5-(L-Lys)-OH] (X1-[dD]DDDDDK-OH)
remaining activity at 1 µM [1]: 95% | remaining activity at 1 µM [2]: 62% | remaining activity at 1 µM [3]: 88% | remaining activity at 1 µM [4]: 95% | remaining activity at 1 µM [5]: 89% | remaining activity at 1 µM [6]: 132% | remaining activity at 1 µM [7]: 75%

Reference: patent US9176064B2, “Bisubstrate fluorescent probes for protein kinase CK2” (University of Tartu, priority 2012, dated 2015)
